Test results: US20020123082A1 (NEW YORK UNIVERSITY, published 2002)

Biological target: T1, human Cul1 (endogenous) (human, UniProt Q13616 1-776)
T1 construct: A slower migrating form is said to be likely modified by a ubiquitin-like molecule
Assay: anti-Flag co-immunoprecipitation from transfected HeLa cells, anti-Cul1 immunoblot
Excerpt: (§1) HeLa cells were transfected with mammalian expression plasmids encoding Flag-tagged versions of FBP1 (lane 1), (ΔF)FBP1 (lane 2), FBP4 (lane 3), FBP7 (lane 5), FBP2 (lane 7), (ΔF)FBP2 (lane 8), FBP3a (lane 9), (ΔF)FBP3a (lane 10), or with an empty vector (lanes 4 and 6). Cells were lysed and extracts were subjected to immunoprecipitation with a rabbit anti-Flag antibody (lanes 1-8). Immunoprecipitates were then immunoblotted with a mouse anti-Cul1 monoclonal antibody, a rabbit anti-Skp1 polyclonal antibody or a rabbit anti-Cul2 polyclonal antibody, as indicated. The last lane contains 25 μg of extracts from non-transfected HeLa cells; […] contains recombinant Cul1, Skp1, or Cul2 proteins used as markers.

T1 sequence (Q13616 whole entry): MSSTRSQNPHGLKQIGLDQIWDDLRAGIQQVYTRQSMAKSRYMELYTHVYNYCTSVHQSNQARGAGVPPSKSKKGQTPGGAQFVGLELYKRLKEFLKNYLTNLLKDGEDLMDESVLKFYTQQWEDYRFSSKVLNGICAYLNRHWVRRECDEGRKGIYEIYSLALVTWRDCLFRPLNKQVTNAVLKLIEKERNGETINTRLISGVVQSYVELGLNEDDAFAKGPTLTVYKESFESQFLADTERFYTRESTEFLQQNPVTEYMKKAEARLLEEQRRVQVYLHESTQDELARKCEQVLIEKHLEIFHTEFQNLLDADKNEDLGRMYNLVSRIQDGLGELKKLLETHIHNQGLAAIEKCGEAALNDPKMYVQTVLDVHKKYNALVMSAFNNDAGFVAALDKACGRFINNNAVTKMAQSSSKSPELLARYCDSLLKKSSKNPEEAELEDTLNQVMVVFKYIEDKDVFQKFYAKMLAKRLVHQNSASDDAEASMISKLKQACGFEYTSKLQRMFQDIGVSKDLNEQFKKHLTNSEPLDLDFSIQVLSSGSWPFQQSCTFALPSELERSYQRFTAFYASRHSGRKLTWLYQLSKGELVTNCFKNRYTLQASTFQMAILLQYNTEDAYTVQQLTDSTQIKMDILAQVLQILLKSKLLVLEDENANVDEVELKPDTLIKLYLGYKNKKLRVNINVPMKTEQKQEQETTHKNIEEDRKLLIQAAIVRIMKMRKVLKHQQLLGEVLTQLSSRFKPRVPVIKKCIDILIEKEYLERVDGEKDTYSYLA

binding result | Binder
no binding | Flag-tagged (ΔF)FBP2 (other, not shown: small tags and cut ends, pcDNA3 construct, Flag tag at the C-terminus; also called Flag-tagged (deltaF)FBP2) MERKDFETWLDNISVTFLSLTDLQKNETLDHLISLSGAVQLRHLSNNLETLLKRDFLKLCKNLGWQIDDSVQDALHWKKVYLKAILRMKQLEDHEAFETSSLIGHSARVYALYYKDGLLCTGSDDLSAKLWDVSTGQCVYGIQTHTCAAVKFDEQKLVTGSFDNTVACWEWSSGARTQHFRGHTGAVFSVDYNDELDILVSGSADFTVKVWALSAGTCLNTLTGHTEWVTKVVLQKCKVKSLLHSPGDYILLSADKYEIKIWPIGREINCKCLKTLSVSEDRSICLQPRLHFDGKYIVCSSALGLYQWDFASYDILRVIKTPEIANLALLGFGDIFALLFDNRYLYIMDLRTESLISRWPLPEYRESKRGSSFLAGEHPG
no binding | Flag-tagged (ΔF)FBP1 (other, not shown: small tags and cut ends, pcDNA3 construct, Flag tag at the C-terminus; also called Flag-tagged (deltaF)FBP1) MDPAEAVLQEKALKFMNSSEREDCNNGEPPRYRVTSDGMLWKKLIERMVRTDSLWRGLAERRGWGQYLFKNKPPDGNAPPNSFYRALYPKIIQDIETIESNWRCGRHSLQRIHCRSETSKGVYCLQYDDQKIVSGLRDNTIKIWDKNTLECKRILTGHTGSVLCLQYDERVIITGSSDSTVRVWDVNTGEMLNTLIHHCEAVLHLRFNNGMMVTCSKDRSIAVWDMASPTDITLRRVLVGHRAAVNVVDFDDKYIVSASGDRTIKVWNTSTCEFVRTLNGHKRGIACLQYRDRLVVSGSSDNTIRLWDIECGACLRVLEGHEELVRCIRFDNKRIVSGAYDGKIKVWDLVAALDPRAPAGTLCLRTLVEHSGRVFRLQFDEFQIVSSSHDDTILIWDFLNDPAAQAEPPRSPSRTYTYISR

Biological target: His-tagged Elongin C (human, UniProt Q15369 1-112)
Assay: pull-down of in vitro translated 35S-FBP on His-Elongin C Nickel-agarose beads
Experimental: FIG. 29. FBPs interact specifically with Skp1 through their F-box. The cDNAs of FBPs (wild type and mutants) were transcribed and translated in vitro (IVT) in the presence of 35S- methionine. […] Bound IVT proteins were analyzed by SDS-PAGE and autoradiography. The arrows on the left side of the panels point to the indicated FBPs. The apparent molecular weights of the protein standards are indicated on the right side of the panels.
As examples of the human FBP family, a more detailed characterization of some FBPs was performed. To confirm the specificity of interaction between the novel FBPs and human Skp1, eight in vitro translated FBPs were tested for binding to His-tagged-Skp1 pre-bound to Nickel-agarose beads. As a control Elongin C was used, the only known human Skp1 homolog.

His-tagged Elongin C, sequence (Q15369 whole entry): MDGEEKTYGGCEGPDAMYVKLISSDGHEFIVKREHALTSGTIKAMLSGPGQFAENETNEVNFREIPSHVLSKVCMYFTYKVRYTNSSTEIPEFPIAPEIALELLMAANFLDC

binding result | Binder
no binding | human F-box protein FBP1 (other) MDPAEAVLQEKALKFMNSSEREDCNNGEPPRKIIPEKNSLRQTYNSCARLCLNQETVCLASTAMKTENCVAKTKLANGTSSMIVPKQRKLSASYEKEKELCVKYFEQWSESDQVEFVEHLISQMCHYQHGHINSYLKPMLQRDFITALPARGLDHIAENILSYLDAKSLCAAELVCKEWYRVTSDGMLWKKLIERMVRTDSLWRGLAERRGWGQYLFKNKPPDGNAPPNSFYRALYPKIIQDIETIESNWRCGRHSLQRIHCRSETSKGVYCLQYDDQKIVSGLRDNTIKIWDKNTLECKRILTGHTGSVLCLQYDERVIITGSSDSTVRVWDVNTGEMLNTLIHHCEAVLHLRFNNGMMVTCSKDRSIAVWDMASPTDITLRRVLVGHRAAVNVVDFDDKYIVSASGDRTIKVWNTSTCEFVRTLNGHKRGIACLQYRDRLVVSGSSDNTIRLWDIECGACLRVLEGHEELVRCIRFDNKRIVSGAYDGKIKVWDLVAALDPRAPAGTLCLRTLVEHSGRVFRLQFDEFQIVSSSHDDTILIWDFLNDPAAQAEPPRSPSRTYTYISR
no binding | human F-box protein FBP5 (other, Gal4 AD fusion in the two-hybrid screen; the clone appeared to be full length) MSRRPCSCALRPPRCSCSASPSAVTAAGRPRPSDSCKEESSTLSVKMKCDFNCNHVHSGLKLVKPDDIGRLVSYTPAYLEGSCKDCIKDYERLSCIGSPIVSPRIVQLETESKRLHNKENQHVQQTLNSTNEIEALETSRLYEDSGYSSFSLQSGLSEHEEGSLLEENFGDSLQSCLLQIQSPDQYPNKNLLPVLHFEKVVCSTLKKNAKRNPKVDREMLKEIIARGNFRLQNIIGRKMGLECVDILSELFRRGLRHVLATILAQLSDMDLINVSKVSTTWKKILEDDKGAFQLYSKAIQRVTENNNKFSPHASTREYVMFRTPLASVQKSAAQTSLKKDAQTKLSNQGDQKGSTYSRHNEFSEVAKTLKKNESLKACIRCNSPAKYDCYLQRATCKREGCGFDYCTKCLCNYHTTKDCSDGKLLKASCKIGPLPGTKKSKKNLRRL
no binding | human F-box protein FBP3a (other) MKRGGRDSDRNSSEEGTAEKSKKLRTTNEHSQTCDWGNLLQDIILQVFKYLPLLDRAHASQVCRNWNQVFHMPDLWRCFEFELNQPATSYLKATHPELIKQIIKRHSNHLQYVSFKVDSSKESAEAACDILSQLVNCSLKTLGLISTARPSFMDLPKSHFISALTVVFVNSKSLSSLKIDDTPVDDPSLKVLVANNSDTLKLLKMSSCPHVSPAGILCVADQCHGLRELALNYHLLSDELLLALSSEKHVRLEHLRIDVVSENPGQTHFHTIQKSSWDAFIRHSPKVNLVMYFFLYEEEFDPFFRYEIPATHLYFGRSVSKDVLGRVGMTCPRLVELVVCANGLRPLDEELIRIAERCKNLSAIGLGECEVSCSAFVEFVKMCGGRLSQLSIMEEVLIPDQKYSLEQIHWEVSKHLGRVWFPDMMPTW
no binding | human F-box protein FBP2 (other) MERKDFETWLDNISVTFLSLTDLQKNETLDHLISLSGAVQLRHLSNNLETLLKRDFLKLLPLELSFYLLKWLDPQTLLTCCLVSKQWNKVISACTEVWQTACKNLGWQIDDSVQDALHWKKVYLKAILRMKQLEDHEAFETSSLIGHSARVYALYYKDGLLCTGSDDLSAKLWDVSTGQCVYGIQTHTCAAVKFDEQKLVTGSFDNTVACWEWSSGARTQHFRGHTGAVFSVDYNDELDILVSGSADFTVKVWALSAGTCLNTLTGHTEWVTKVVLQKCKVKSLLHSPGDYILLSADKYEIKIWPIGREINCKCLKTLSVSEDRSICLQPRLHFDGKYIVCSSALGLYQWDFASYDILRVIKTPEIANLALLGFGDIFALLFDNRYLYIMDLRTESLISRWPLPEYRESKRGSSFLAGEHPG

Biological target: human Cul2 (endogenous) (human, UniProt Q13617 1-745, limits assumed)
Assay: anti-Flag co-immunoprecipitation from transfected HeLa cells, anti-Cul2 immunoblot
Excerpt: as §1

human Cul2 (endogenous), sequence (Q13617 whole entry): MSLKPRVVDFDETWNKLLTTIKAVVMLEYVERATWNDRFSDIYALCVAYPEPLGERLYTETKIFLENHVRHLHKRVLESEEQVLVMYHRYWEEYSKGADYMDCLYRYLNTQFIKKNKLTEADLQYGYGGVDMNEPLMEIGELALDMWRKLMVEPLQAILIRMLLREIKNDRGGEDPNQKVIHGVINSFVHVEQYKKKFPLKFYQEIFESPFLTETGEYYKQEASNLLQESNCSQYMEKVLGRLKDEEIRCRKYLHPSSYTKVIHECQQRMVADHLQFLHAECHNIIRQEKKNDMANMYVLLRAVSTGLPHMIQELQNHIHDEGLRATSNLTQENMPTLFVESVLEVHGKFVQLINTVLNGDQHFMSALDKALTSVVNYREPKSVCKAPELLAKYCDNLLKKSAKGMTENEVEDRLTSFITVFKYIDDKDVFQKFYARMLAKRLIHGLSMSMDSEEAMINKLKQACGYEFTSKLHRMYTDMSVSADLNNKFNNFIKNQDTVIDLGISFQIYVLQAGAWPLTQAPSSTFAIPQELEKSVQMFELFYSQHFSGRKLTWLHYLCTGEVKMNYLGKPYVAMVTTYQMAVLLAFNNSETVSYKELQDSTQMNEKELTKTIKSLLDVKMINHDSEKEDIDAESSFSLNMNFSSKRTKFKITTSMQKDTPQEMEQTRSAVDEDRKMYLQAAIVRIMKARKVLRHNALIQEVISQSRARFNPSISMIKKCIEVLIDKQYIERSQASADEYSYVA

binding result | Binder
no binding | Flag-tagged FBP1 (other, not shown: small tags and cut ends, Flag tag at the C-terminus in the pcDNA3 constructs (HeLa, 293 cells); also called Flag-FBP1) MDPAEAVLQEKALKFMNSSEREDCNNGEPPRKIIPEKNSLRQTYNSCARLCLNQETVCLASTAMKTENCVAKTKLANGTSSMIVPKQRKLSASYEKEKELCVKYFEQWSESDQVEFVEHLISQMCHYQHGHINSYLKPMLQRDFITALPARGLDHIAENILSYLDAKSLCAAELVCKEWYRVTSDGMLWKKLIERMVRTDSLWRGLAERRGWGQYLFKNKPPDGNAPPNSFYRALYPKIIQDIETIESNWRCGRHSLQRIHCRSETSKGVYCLQYDDQKIVSGLRDNTIKIWDKNTLECKRILTGHTGSVLCLQYDERVIITGSSDSTVRVWDVNTGEMLNTLIHHCEAVLHLRFNNGMMVTCSKDRSIAVWDMASPTDITLRRVLVGHRAAVNVVDFDDKYIVSASGDRTIKVWNTSTCEFVRTLNGHKRGIACLQYRDRLVVSGSSDNTIRLWDIECGACLRVLEGHEELVRCIRFDNKRIVSGAYDGKIKVWDLVAALDPRAPAGTLCLRTLVEHSGRVFRLQFDEFQIVSSSHDDTILIWDFLNDPAAQAEPPRSPSRTYTYISR
no binding | Flag-tagged FBP3a (other, not shown: small tags and cut ends, pcDNA3 construct, Flag tag at the C-terminus) MKRGGRDSDRNSSEEGTAEKSKKLRTTNEHSQTCDWGNLLQDIILQVFKYLPLLDRAHASQVCRNWNQVFHMPDLWRCFEFELNQPATSYLKATHPELIKQIIKRHSNHLQYVSFKVDSSKESAEAACDILSQLVNCSLKTLGLISTARPSFMDLPKSHFISALTVVFVNSKSLSSLKIDDTPVDDPSLKVLVANNSDTLKLLKMSSCPHVSPAGILCVADQCHGLRELALNYHLLSDELLLALSSEKHVRLEHLRIDVVSENPGQTHFHTIQKSSWDAFIRHSPKVNLVMYFFLYEEEFDPFFRYEIPATHLYFGRSVSKDVLGRVGMTCPRLVELVVCANGLRPLDEELIRIAERCKNLSAIGLGECEVSCSAFVEFVKMCGGRLSQLSIMEEVLIPDQKYSLEQIHWEVSKHLGRVWFPDMMPTW
no binding | Flag-tagged FBP2 (other, not shown: small tags and cut ends, pcDNA3 construct, Flag tag at the C-terminus) MERKDFETWLDNISVTFLSLTDLQKNETLDHLISLSGAVQLRHLSNNLETLLKRDFLKLLPLELSFYLLKWLDPQTLLTCCLVSKQWNKVISACTEVWQTACKNLGWQIDDSVQDALHWKKVYLKAILRMKQLEDHEAFETSSLIGHSARVYALYYKDGLLCTGSDDLSAKLWDVSTGQCVYGIQTHTCAAVKFDEQKLVTGSFDNTVACWEWSSGARTQHFRGHTGAVFSVDYNDELDILVSGSADFTVKVWALSAGTCLNTLTGHTEWVTKVVLQKCKVKSLLHSPGDYILLSADKYEIKIWPIGREINCKCLKTLSVSEDRSICLQPRLHFDGKYIVCSSALGLYQWDFASYDILRVIKTPEIANLALLGFGDIFALLFDNRYLYIMDLRTESLISRWPLPEYRESKRGSSFLAGEHPG
no binding | Flag-tagged FBP4 (other, not shown: small tags and cut ends, pcDNA3 construct, Flag tag at the C-terminus) MAGSEPRSGTNSPPPPFSDWGRLEAAILSGWKTFWQSVSKDRVARTTSREEVDEAASTLTRLPIDVQLYILSFLSPHDLCQLGSTNHYWNETVRNPILWRYFLLRDLPSWSSVDWKSLPYLQILKKPISEVSDGAFFDYMAVYLMCCPYTRRASKSSRPMYGAVTSFLHSLIIPNEPRFALFGPRLEQLNTSLVLSLLSSEELCPTAGLPQRQIDGIGSGVNFQLNNQHKFNILILYSTTRKERDRAREEHTSAVNKMFSRHNEGDDRPGSRYSVIPQIQKLCEVVDGFIYVANAEAHKRHEWQDEFSHIMAMTDPAFGSSGRPLLVLSCISQGDVKRMPCFYLAHELHLNLLNHPWLVQDTEAETLTGFLNGIEWILEEVESKRAR
no binding | Flag-tagged FBP7 (other, not shown: small tags and cut ends, Expressed in HeLa cells) MSNTRFTITLNYKDPLTGDEETLASYGIVSGDLICLILHDDIPPPNIPSSTDSEHSSLQNNEQPSLATSSNQTSIQDEQPSDSFQGQAAQSGVWNDDSMLGPSQNFEAESIQDNAHMAEGTGFYPSEPLLCSESVEGQVPHSLETLYQSADCSDANDALIVLIHLLMLESGYIPQGTEAKALSLPEKWKLSGVYKLQYMHHLCEGSSATLTCVPLGNLIVVNATLKINNEIRSVKRLQLLPESFICKEKLGENVANIYKDLQKLSRLFKDQLVYPLLAFTRQALNLPNVFGLVVLPLELKLRIFRLLDVRSVLSLSAVCRDLFTASNDPLLWRFLYLRDFRDNTVRVQDTDWKELYRKRHIQRKESPKGRFVLLLPSSTHTIPFYPNPLHPRPFPSSRLPPGIIGGEYDQRPTLPYVGDPISSLIPGPGETPSQLPPLRPRFDPVGPLPGPNPILPGRGGPNDRFPFRPSRGRPTDGRLSFM
